Results on one substance are retold here after patent US20220204609A1.

Assay [1] deals with Claudin18.1 on cells (human) (UniProt P56856). Nature of the assay: flow cytometry on 293T-Claudin18.1 cells, antibody at 3 µg/mL. (In general: In flow cytometry, cells or beads pass a laser one at a time.)
Assay [2] has the same target. Briefly: flow cytometry on 293T-Claudin18.1 cells, antibody at 0.375 µg/mL.
Assay [3] shares this target. Briefly: flow cytometry on 293T-Claudin18.1 cells, antibody at 0.75 µg/mL.
Assay [4] has the same target. Briefly: flow cytometry on 293T-Claudin18.1 cells, antibody at 3 µg/mL. The source holds these as a separate data set.
For assay [5] the target is unchanged. Briefly: flow cytometry on 293T-Claudin18.1 cells, antibody at 1.5 µg/mL.
For assay [6] the target is unchanged. Described as above. This is another data set of the same source.
The target is the same in assay [7]. Briefly: flow cytometry on 293T-Claudin18.1 cells, antibody at 0.75 µg/mL. This is another data set of the same source.
Assay [8] has the same target. Nature of the assay: flow cytometry on 293T-Claudin18.1 cells, antibody at 0.375 µg/mL. This is another data set of the same source.

Sequence of Claudin18.1 on cells (human) (P56856 whole entry, form in doubt): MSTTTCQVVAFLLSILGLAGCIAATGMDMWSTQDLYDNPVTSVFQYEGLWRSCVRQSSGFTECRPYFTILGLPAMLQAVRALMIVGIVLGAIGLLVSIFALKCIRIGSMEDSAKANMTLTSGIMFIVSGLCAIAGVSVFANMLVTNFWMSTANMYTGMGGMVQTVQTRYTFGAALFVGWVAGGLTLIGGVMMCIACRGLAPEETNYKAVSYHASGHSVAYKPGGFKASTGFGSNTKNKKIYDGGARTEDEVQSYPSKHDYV

For IMAB362 (antibody), the mean fluorescence intensity was 35600 in assay [1]; 12800 in assay [2]; 32000 in assay [3]; 12500 in assay [4]; 17300 in assay [5]; 24900 in assay [6]. The values for the mean fluorescence intensity in assay [7] and in assay [8] were 20700 and 15600, respectively.
